The values below come from patent US6833135.

The subject of the data set is T1, Ms6 integrase (Int) (Mycobacterium phage Ms6).
T1 sequence: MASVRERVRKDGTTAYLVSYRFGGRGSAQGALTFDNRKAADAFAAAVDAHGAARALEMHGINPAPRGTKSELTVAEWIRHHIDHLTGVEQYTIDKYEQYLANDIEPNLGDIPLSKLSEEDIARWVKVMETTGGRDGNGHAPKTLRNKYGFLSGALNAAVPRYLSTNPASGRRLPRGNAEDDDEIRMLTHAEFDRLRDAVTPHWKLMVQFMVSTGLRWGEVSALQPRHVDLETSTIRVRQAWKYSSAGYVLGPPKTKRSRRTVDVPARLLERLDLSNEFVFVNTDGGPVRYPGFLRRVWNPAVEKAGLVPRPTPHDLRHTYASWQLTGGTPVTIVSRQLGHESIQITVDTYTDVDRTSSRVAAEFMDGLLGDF
The data set can be described thus: cell_activity. The following applies: for activity (transformants/ug DNA): M. smegmatis.

In turn, “CAGCAGACACCCACATGTCCGTGTTGTCACTGACAACACGGCTCCAGGTTTTCCCAGGTCGCTACAGGTCTAAAAAGGTCGGAACAGAACCACACGGGTGTTTTTTCGCAGGTAAACGCCCATTTCCCCACGATCGAAGGGGTTCGAATCCCCTTAGCTCCACCCAAAACCGCAGGTCAGCGAATCGCCCAGAATCTGACAGCACCGATGACATCACAACGGATAGAATCCGGGTATGGCATCAGTGCGTGAACGGGTCCGCAAAGAC (double strand) [Ms6 attP region, 273 bp (pAV3, primers p13/p2N)]” gave an activity (colonies/ug DNA) (integrase in trans from suicide helper pAV4, about) of 40000.

On to “Ms6 attP-int fragment, 1382 bp (primers pC/p10)”, for which the activity (transformants/ug DNA) (no integration) was found to be 0.

For the setting “no integration”, “Ms6 attP-int fragment, 1459 bp (primers p1C/p10)” returned an activity (transformants/ug DNA) of 0.

The substance “Ms6 attP-int fragment, 1521 bp (primers p13/p10)” yielded an activity (transformants/ug DNA) (smallest functional cassette) of 100000.
